Molecular target: VEGFR2 (Homo sapiens, UniProt P35968)
Assay: NFAT luciferase reporter gene assay in HEK293T ReLuc2P cells stably expressing wild-type VEGFR2
Format: cell-based
Design: in cells expressing the wild-type VEGFR2 receptor; host or cells: HEK293T ReLuc2P suspension cell line
Conditions: cells expressing the wild-type VEGFR2 receptor; n = 4
Experimental: NFAT luciferase reporter gene activity was monitored in a HEK293T ReLuc2P (Promega Corporation, USA) suspension cell line stably expressing VEGFR2 as described previously.
NFAT reporter genes: All data obtained from the NFAT luciferase reporter gene assays were normalised to 10 nM VEGF165a responses and fitted with non linear regression using the equation as described previously.

VEGFR2, sequence (P35968 20-1356): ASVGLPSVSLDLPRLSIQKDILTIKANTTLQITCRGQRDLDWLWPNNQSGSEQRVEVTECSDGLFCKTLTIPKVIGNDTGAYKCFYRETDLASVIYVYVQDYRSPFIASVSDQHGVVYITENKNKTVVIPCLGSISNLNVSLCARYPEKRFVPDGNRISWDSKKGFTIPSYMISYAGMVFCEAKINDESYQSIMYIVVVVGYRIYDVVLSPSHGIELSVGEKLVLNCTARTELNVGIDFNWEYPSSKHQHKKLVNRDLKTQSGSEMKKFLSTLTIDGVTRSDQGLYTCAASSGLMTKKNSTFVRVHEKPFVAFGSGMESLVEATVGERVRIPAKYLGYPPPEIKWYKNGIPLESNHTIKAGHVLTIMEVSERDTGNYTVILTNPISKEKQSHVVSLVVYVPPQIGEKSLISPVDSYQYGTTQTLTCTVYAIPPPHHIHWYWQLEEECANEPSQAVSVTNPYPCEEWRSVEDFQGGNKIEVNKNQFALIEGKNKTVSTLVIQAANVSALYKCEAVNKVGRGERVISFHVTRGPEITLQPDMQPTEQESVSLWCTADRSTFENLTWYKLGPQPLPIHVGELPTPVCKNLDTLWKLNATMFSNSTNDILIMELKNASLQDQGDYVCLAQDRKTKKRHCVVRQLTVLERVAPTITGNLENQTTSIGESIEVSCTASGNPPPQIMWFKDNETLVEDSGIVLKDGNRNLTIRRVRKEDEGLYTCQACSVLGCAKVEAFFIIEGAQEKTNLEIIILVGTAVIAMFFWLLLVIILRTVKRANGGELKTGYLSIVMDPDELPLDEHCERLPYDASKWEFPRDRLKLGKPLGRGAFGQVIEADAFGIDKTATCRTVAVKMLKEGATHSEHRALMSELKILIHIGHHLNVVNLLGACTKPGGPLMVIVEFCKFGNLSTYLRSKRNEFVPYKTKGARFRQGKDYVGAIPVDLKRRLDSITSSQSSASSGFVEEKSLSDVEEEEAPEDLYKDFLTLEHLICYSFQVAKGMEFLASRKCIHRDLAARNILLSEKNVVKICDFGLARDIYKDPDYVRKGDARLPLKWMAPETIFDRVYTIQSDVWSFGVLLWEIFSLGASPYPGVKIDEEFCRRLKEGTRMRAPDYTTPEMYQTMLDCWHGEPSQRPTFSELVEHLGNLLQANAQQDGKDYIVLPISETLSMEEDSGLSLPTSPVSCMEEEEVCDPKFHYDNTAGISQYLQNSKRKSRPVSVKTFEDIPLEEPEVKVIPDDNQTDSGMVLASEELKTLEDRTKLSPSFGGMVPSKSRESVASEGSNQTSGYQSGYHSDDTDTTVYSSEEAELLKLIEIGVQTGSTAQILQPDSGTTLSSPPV

B1: non-fluorescent VEGF165a: unlabeled VEGF165a purified in an identical manner to VEGF165a-TMR, with modified N-terminus (protein)
chain: CDNAPMAEGGGQNHHEVVKFMDVYQRSYCHPIETLVDIFQEYPDEIEYIFKPSCVPLMRCGGCCNDEGLECVPTEESNITMQIMRIKPHQGQHIGEMSFLQHNKCECRPKKDRARQENPCGPCSERRKHLFVQDPQTCKCSCKNTDSRCKARQLELNERTCRCDKPRR
modifications: free N-terminal Cys (unlabeled); HEK293T-expressed, glycosylated; disulfide-linked antiparallel homodimer
In the case of B1, the “pEC50, NFAT reporter gene agonist activity” value is reported as 9.72 ± 0.09.

— publication PMC5457915, “Real-time analysis of the binding of fluorescent VEGF165a to VEGFR2 in living cells: Effect of receptor tyrosine kinase inhibitors and fate of internalized agonist-receptor complexes” (Biochemical Pharmacology, 2017)
